The values below come from publication PMC2965237.

Common to all, as to assay: EMSA
(In general: In EMSA bound probe runs differently from free probe, usually more slowly.)

Series [1] concerns the target RdgC R118C (Escherichia coli, UniProt P36767 1-303, R118C).
Series [2] deals with RdgC E218R (Escherichia coli, UniProt P36767 1-303, E218R).
The target of series [3] is RdgC H222A (Escherichia coli, UniProt P36767 1-303, H222A).
Series [4] has as its target RdgC R118A (Escherichia coli, UniProt P36767 1-303, R118A).
Series [5] concerns the target RdgC Δfinger R118C (Escherichia coli, UniProt P36767 1-303, P76G;L116T;R118C;del77-115).
The target in series [6] is RdgC F120T K227A (Escherichia coli, UniProt P36767 1-303, F120T;K227A).

In general, Kd refers to a measure of binding affinity in units of concentration.

B1: RGL13/17 (dsDNA)
DNA 1: GACGCTGCCGAATTCTGGCTTGCTAGGACATCTTTGCCCACGTTGACCC
DNA 2: GGGTCAACGTGGGCAAAGATGTCCTAGCAAGCCAGAATTCGGCAGCGTC
Take B1: the Kd in series [1] amounted to 6 nM; in series [2], 22 nM; in series [3], 12 nM; in series [4], 6 nM.
As for GACGCTGCCGAATTCTGGCTTGCTAGGACATCTTTGCCCACGTTGACCC (ssDNA) [RGL13], the Kd is 6 nM in series [1], ~6000 nM in series [5], 5 nM in series [3] and 6 nM in series [4]. For the same molecule, the binding result in series [6] was “no binding”.
